Results taken from the DeepSol protein solubility set.

Test: soluble on expression in E. coli; label from the status in PepcDB or PDB records

Sequence | soluble on expression in E. coli
MASRAPKEVPLCPLMTDGETRNVTDLPGPTNWPLLGSLLEIFWKGGLKKQHDTLAEYHKKYGQIFRMKLGSFDSVHLGSPSLLEALYRTESAHPQRLEIKPWKAYRDHRNEAYGLMILEGQEWQRVRSAFQKKLMKPVEIMKLDKKINEVLADFLERMDELCDERGRIPDLYSELNKWSFESICLVLYEKRFGLLQKETEEEALTFITAIKTMMSTFGKMMVTPVELHKRLNTKVWQAHTLAWDTIFKSVKPCIDNRLQRYSQQPGADFLCDIYQQDHLSKKELYAAVTELQLAAVETTANSLMWILYNLSRNPQAQRRLLQEVQSVLPDNQTPRAEDLRNMPYLKACLKESMRLTPSVPFTTRTLDKPTVLGEYALPKGTVLTLNTQVLGSSEDNFEDSHKFRPERWLQKEKKINPFAHLPFGIGKRMCIGRRLAELQLHLALCWIIQKYDIVATDNEPVEMLHLGILVPSRELPIAFRPR | soluble
MSLVMSGEKMKVIIVEDEFLAQQELSWLINTHSQMEIVGSFDDGLDVLKFLQHNKVDAIFLDINIPSLDGVLLAQNISQFAHKPFIVFITAWKEHAVEAFELEAFDYILKPYQESRIINMLQKLTTAWEQQNNAASGLASAAPRENDTINLIKDERIIVTSIHDIYYAEAHEKMTFVYTRRESFVMPMNITEEGHHHHHH | not soluble
GPLGSMADSQDPLHERTRRLLSDYIFFCAREPDTPEPPPTSVEAALLRSVTRQIQQEHQEFFSSFCESRGNRLELVKQMADKLLSKDQDFSWSQLVMLLAFAGTLMNQGPYMAVKQKRDLGNRVIVTRDCCLIVNFLYNLLMGRRHRARLEALGGWDGFCRFFKNPLPLG | soluble
MAHHHHHHMAADKDTPDSLGHSQTMAAEGTKGVATEQQPQASPSSSSAAAAATSMSVAETTATDATTAAASRKAPAPHDKAVAVNEGSTARVAAASSSSSTASSSASVDEQRRRRLALYGSRAMAAGGKKGPALAADPHHPSTPHGSAHGRHALTAFGARRGGELAFYIQQGGDLTSQGRYLVIGDGLMAPFMALCLRVHGLECDLAHHPSQNDLDRGTVVLTPSVTQLMGDVLNVSVPSGSVVGRVLTFDHVGNDMCDVDLNEFREKGESPTFFCCDRLKVESALMSLCRIGAHSCMVLPKPQIDKGGLEPLESGGVRVRFTSGLQQDYLGVICTARNQELVPELTITNEELQARAENAEKYRDTFSKSVRWMELCVPPLPELGKFEKRFTPGSQEIVEILTPRDAKMTVRPTMMATKLFYNVTLTIPDGTADPRLKSTSTKLFWDDVVMHWTSGVPGYISHTMFRPMFTHLQQNFTKSSALVYRTPLFLMPHWSEGGGRVIKVAHAAHGSCFDAVDVSDAQGFTDCFTLARTIAGGEDVAAFLKERRLQVMEEMDHHSRLTYYGLKERGQMAYMMSRFNMKIMRKYKKSWRSILQNYVTLMPKSIPR | soluble
AHHHHHHGSLEKLLEQAGIKLDFDGEEEKKSEIVDEFSGYKINIAVVGVGGSGNNTISRLYDLGVQGADLIAMNTDAQHLAITKAHKKVLLGKHITQGKGSGGDPKVGYLAAEASAQEIAAAVDGYDLVFITAGMGNGTGTGAAPVVARIVKETARNNGRFQEPLVVSVVTFPFKTEGTVRIEKAKWGIQRLLEYSDTVIIIQNDKLLELVPKLPLQSAFRFADELIARMVKGIVETIKLNSIVNIDFADVYSIMKGGGPALIGIGESDSNNRAVDAVNNALTNKMLDVEFGSGEKALVHFTIGPDVSLEEINKAMEVVYEKLSEKSEIKWGAMVDPEMGKTVRAMVIMTGVRSPYILGNVNALTDSSSWVVPKDRRLIGDPRIEKMFPDFNGSRAGRKRPSVGDAILKELGFKEL | soluble
MSLYKIITSDLDETLLRQDGSISSANVAAIAAASKRGVKFVPNTGRSFLSIQPLLKTLNLYQRPNEYVVSYNGGVVVENQDNRVIVSNEMPYEEAAKAFAIMSEFDVDIHIYTLDHLFIYRPRADDRAYLQTRGVTFTEMTGAFDQFRNAQIMKVIVMNPDVMVRQQVYAAIKAAFTEINCTYSSGIYMEVNHAGVDKGRAILDLGDKLGIKADEIMAIGDNANDLGMLTKVGLPVSVANGIDDVKQVAKFVTPHDYERGVADAIETFILEGHHHHHH | soluble
MSLEFLMKKVVFALSALAVVSTSAFAAESGDGTIKFTGEIVDAPCVVSTDSQNQEVVLGQVKKNIFKAIGDKSSSKPFQIKLEDCDITSNTKVNVSFNGVGDTDDATLVSVNTEAGAATGVGIGIYDNANKLVEMNTGKSTTTLAAGQTVLYYTANYVATKDTVTTGYGNAEVDFNLSYEEGGSHHHHHH | soluble
GPGSMPKSKRAKIVPLTKTQAKTREDKDKLIERIREALEDYSDVYTFQLHNIRTNILQQIREERAGDSRIFLGNNKVMMIAIGRDEESAQRQNLHKLSPFLTGLCGLLFTNLSKKEVKEYFATVGAPVYARTGQTATESLVLKGGPLPQFPHSMFDHLAKLGLPIKLDRGVIVLLQDTTVCEPGDTLSAEAAQLLKLFGVQSAKFKMDLTAHWTSGVAKKVSSSASKRSEK | soluble
MSLSEVSLRPAKISTVLPGSLGEEMGFEPGDAIVRINGQAPRDLIDYQFLCADDYLELDVLDSQGELHELAVEKEFDQDLGLGFETALFDGLIQCNNRCPFCFIDQQPPGKRESLYYKDDDYRLSFLYGSYLTLTNLSAKEWQRIEQLRLSPLYVSIHATEASVRERLLKNHRAGQILDQLAWFQARRLQIHAQVVVCPGVNDGKHLEQTLRDLAQFHQGETPAVISVAVVPVGLTRFRPQEDELSPVGQAKATEVIAQVQALQKEFAQQLGGNFVWLADEWFLIARQPLPPESHYEDYPQIGNGVGSIRQFIKEFQQQAAEFLPPAIAEAKTLTWVVGNAVEQAFELLVEQLNQVKGLTVNLAPLNSDYWGQEITVTGLLTGQDLIAKLAGRDLGDGILLPALMLKHDDTRFLDDLRVADVAQKLGTTIYPVADVASLLEHCVQPMAVSREGHHHHHH | soluble
MENKHNPTSHTSHTWSELPELNPCVPLGTLLPDKSCPKTHPLADLIPPRQQQQFMHGNSWKLAPYGRSMIMRYAMQVRGQLAPTVLGINRTWKGDTCWNQIPKTSDCFHMVYKDHKLYFLNKTGSFKIFDFCGDIPQQTFEWSVKVERSQFGPPPPSNPWKVLATKLVVTVTGKVLKVEEMGGARPRTWSFRVFESMLLDQGITVLANDTGGFIRNTIYFSASHGNNTHDIYIFNLETQKTEPLHTLDSYSSSVQFYGAQWFVPSFKH | soluble
MPFIYRRRVQFYETDAQGIVHHSNYFRYFEEARGEFLRSKGFPYSKMRDMGLEVVLLNAYCEYKKPLFYDDVFEVHLNLEELSRFTFTFSYIVFKEDIAVAKANTKHCMVKNGKIVSIPKEVLEVLKD | soluble
MAGSTLTVKDLHVSIDGKEILKGVNLEVKGGEIHAIMGPNGTGKSTLSSAIMGHPKYEVTEGSIIIDGEDVLEMEVDERAQAGLFLAMQYPSEISGVTNADFLRSAINARREEGDEISLMKFIRKLDKNMEFLEMDPEMAQRYLNEGFSGGEKKRNEILQLMMIEPKIAILDEIDSGLDIDALKVVSKGINEMRGEEFGCLMITHYQRLLNYITPDFVHVMMNGRIVKSGGPELAQRLEAEGYDWIKKELGIEDETTEQEA | not soluble
MIQAILVFNNHGKPRLVRFYQRFPEEIQQQIVRETFHLVLKRDDNICNFLEGGSLIGGSDYKLIYRHYATLYFVFCVDSSESELGILDLIQVFVETLDKCFENVCELDLIFHMDKVHYILQEVVMGGMVLETNMNEIVAQIEAQNRLEKSEGGLSAAPARAVSAVKNINLPEIPRNINIGDLNIKVPNLSQFV | not soluble
MAHHHHHHSLAPLISVLDLTPVSTGQQPGEALRHTLELAEVADSYQYTRFWIAEHHNSGAFVSAATEILIALAAARTGRIRVGSGGVMLPNHSPLKVAENFMSLEALFPGRIDLGLGRAPGTDGRTALALRRSREALAADDFPTQIALLRAFAGETPWPAGSVFDGVLAEPRGVKLPPLWILGSSLYGAQLAGELGVGYAFAYHFSQEDPAVAVQTYHRHFRPGPLAEPYAILGVNALAAPTEDEARDLSLTSAALSLGILSGQRGVLRSPEEARQWLQEMDTDPAKLLKKARIGTPEQVWASLQELGESTGAQEMLVTTYAHDPLKRQQSYRLLAQAAGMTPQKEEG | soluble
MGSDKIHHHHHHMIYMRLKLSFIYDGDKFQPNKHAVQGFIYNMLRGTEYEDRHNRRGFKFFTFSDVFRDSKGYYSLLIASPDSGFINALYLSLKDRDHVYIGKDEIKLVEVKKFKLKLKRAFQTGSPVVIYKDSRKNEYFKLHEHRDLLFFLQRLKENAEKKFNSFYGDEFHLEGLIFDRVIPKVRKNGKVDVYVKVVKNGVPFPVIGTNWELLEKERIKPEERRFYRFIMDCGLGEKNSLGFGFLNPIKGVKN | not soluble
MKAVMLLSGGIDSSTLLYYLLDGGYEVHALTFFYGQKHSKEIESAEKVAKAAKVRHLKVDISTIHDLISYGALTGEEEVPKAFYSEEVQRRTIVPNRNMILLSIAAGYAVKIGAKEVHYAAHLSDYSIYPDCRKEFVKALDTAVYLANIWTPVEVRAPFVDMTKADIVRLGLKLGVPYELTWSCYEGGDRPCLSCGTCLERTEAFLANGVKDPLLSDEEWKNAVKIYEEMRARNEGKSD | not soluble
MRGRQKIAIVGAGLGGAAAATLLQQAGFDVEVFEQAPAFTRLGAGIHIGPNVMKIFRRMGLEQKLELMGSHPDFWFSRDGNTGDYLSRIPLGEFARREYGAAYITIHRGDLHALQIEAIQPGTVHFGKRLEKIVDEGDQVRLDFADGTHTVADIVIGADGIHSKIREELLGAEAPIYSGWVAHRALIRGVNLAQHADVFEPCVKWWSEDRHMMVYYTTGKRDEYYFVTGVPHEAWDFQGAFVDSSQEEMRAAFEGYHPTVQKLIDATESITKWPLRNRNPLPLWSRGRLVLLGDACHPMKPHMAQGACMAIEDAAMLTRCLQETGLSDHRTAFALYEANRKERASQVQSVSNANTWLYSQEDPAWVYGYDLYGQQLESGEAALEHHHHHH | soluble
MAHHHHHHSLNDIVEVEIVDLTHEGAGVAKVDGLVFFVENALPSEKILMRVLKVNKKIGFGKVEKYLVQSPHRNQDLDLAYLRSGIADLGHLSYPEQLKFKTKQVKDSLYKIAGIADVEVAETLGMEHPVKYRNKAQVPVRRVNGVLETGFFRKNSHNLMPLEDFFIQDPVIDQVVVALRDLLRRFDLKPYDEKEQSGLIRNLVVRRGHYSGQIMVVLVTTRPKVFRVDQLIEQVIKQFPEIVSVMQNINDQNTNAIFGKEWRTLYGQDYITDQMLGNDFQIAGLAFYQVNTEMAEKLYQTAIDFAELKKDDVVIDAYSGIGTIGLSVAKHVKEVYGVELIPEAVENSKKNAQLNNISNAHYVCDTAENAMKNWLKDGIQPTVILVDPPRKGLTESFIKASAQTGADRIAYISCNVATMARDIKLYQELGYELKKVQPVDLFPQTHHVETVALLSKLDVDKHISVEIELDEMDLTSAESKATYAQIKEYVWNKFELKVSTLYIAQIKKKCGIELREHYNKSKKDKQIIPQCTPEKEEAIMDALRHFKMIEG | soluble
MGHHHHHHSHMNIQKDGKNVTSRREWIEKLVESKGKVDIEELASHFGVSSMTIRRDLMHLEEHNKLIRTHGGAVAPSSLIGETPYAQKQTEHLMEKQLIAKQASTLVPEGATILVDSGTTTLELIKLLKDRNDLTIVTNDITIAAELVNASPKCIVTGGELQLGVGALFGPQTEGMIRELHVDLFFLGAHAVDEAAGVTAPTLEKAAIKKRMMEAAQTTWLICDSSKFSKRAFANVCQLTKLEGIITDANFLTSFKHENYHDNMVIAQA | soluble
MLPSRKRLVLEQLGKTLSRFAGLQAVSPPARGWIRAIREALGMSGVQFAARLGVTPPRVTALERDELSGAVTMKTMRQAAEALDCVFLYALVPRTSLEETIRRQAEAVARERLLRVSHTMMLESQQLSEEEMKQALDAAVEELVRTMPKDLWSKAP | not soluble
